Where a chain is given by its changes, count along the chain named.

Experiment [1] addresses T1, CLD18A2.
T1 construct: also called claudin 18 splice variant A2; CHO-S-CLD18A2
The experiment is described as follows: cell ELISA, purified VHH 2 µg/ml on CHO-S-CLD18A2. The protocol:
(§1) CHO-S, CHO-S-CLD18A1, and CHO-S-CLD18A2 are plated in 96-well plates at 5×10⁵ cells per well, and blocked with 3% BSA at room temperature for 1 h. The purified Anti-CLD18A2 VHH with HIS-tag is diluted to 2 μg/ml, add 100 μl to the blocked cells, and incubated for 1 h at room temperature. After washing, 100 μl/well of 1:5000 diluted mouse anti-his tag antibody (R&D Systems, Inc) was added and incubated at room temperature for 1 h. After washing, 100 μl/well of 1:10000 diluted HRP-Goat anti-mouse IgG antibody (Thermo Scientific) was added and incubated for 1 h at room temperature. After washing, TMB was added to develop color. The OD value is measured at 450 nm.

The target in experiment [2] is T2, CLD18A1 (Homo sapiens (Human), UniProt P56856 1-261).
T2 construct: also called claudin 18 splice variant A1; CHO-S-CLD18A1
The experiment is described as follows: cell ELISA, purified HIS-tagged VHH on CHO-S-CLD18A1. The protocol:
as §1
(In an ELISA, binding on a coated surface is turned into a signal by an enzyme label.)

Experiment [3] addresses T1, CLD18A2. As to the kind of experiment: cell ELISA, his-tagged VHH titrated on CHO-S-CLD18A2. As for the experimental part:
(§2) CHO-S-CLD18A2 cells are plated in a 96-well plate at 5×10⁵ cells per well, and blocked with 3% BSA at room temperature for 1 h. The purified Anti-CLD18A2 VHH fused with histidine tag is diluted in gradients with 1% BSA, added to the blocked cells, and incubated for 1 h at room temperature. After washing, 100 μl/well of 1:5000 diluted mouse anti-his tag antibody (R&D Systems, Inc) was added and incubated at room temperature for 1 h. After washing, 100 μl/well of 1:10000 diluted HRP-Goat anti-mouse IgG antibody (Thermo Scientific) was added and incubated for 1 h at room temperature. After washing, TMB was added to develop color. The OD value is detected at 450 nm. The software GraphPad Prism v5.0 is used for data processing and mapping analysis, and the EC50 value of Anti-CLD18A2 VHH against CLD18A2 on cells is obtained to reflect the affinity of the VHH to CLD18A2.

Experiment [4] concerns the target T2, CLD18A1. The experiment is described as follows: cell ELISA, E. coli expression supernatant on CHO-S-CLD18A1. As for the experimental part:
(§3) The clones selected according to the results of the 96-well plates of CHO-S, CHO-S-CLD18A1, and CHO-S-CLD18A2 cells are cultured. pcomb3XSS plasmids containing a single VHH sequence are extracted, and transformed into E. coli respectively to expression host Rosetta DE3. The respective expression clones are selected and cultured, then induced with 0.2 mM IPTG at 30° C. overnight to facilitate the periplasm-expressed proteins leakage into the culture medium supernatant. The culture medium supernatant of 16 clones are examined by ELISA again: adding 100 μl/well of 1:5000 diluted mouse anti his tag antibody (R&D Systems, Inc), incubating at room temperature for 1 h, washing, adding 100 μl/well of 1:10000 diluted HRP-Goat anti-mouse IgG antibody (Thermo Scientific), incubating for 1 h at room temperature, and adding TMB to develop color after washing. The negative control is a clone transfected with negative plasmid. The cell ELISA results are shown in Table 1, and the specific binding clones are further selected. These clones are sequenced respectively. Amino acid sequence alignment is performed. Clones with identical sequences are removed and finally 8 different clones are obtained.

In experiment [5] the target is T1, CLD18A2. The experiment is described as follows: cell ELISA, E. coli expression supernatant on CHO-S-CLD18A2. The protocol:
as §3

The target of experiment [6] is T1, CLD18A2. As to the kind of experiment: cell-based or functional assay.
The target of experiment [7] is T1, CLD18A2. As to the kind of experiment: cell ELISA on CHO-S-CLD18A2, anti-his tag detection. As for the experimental part:
as §2
(§4) CHO-S-CLD18A2 and Jurkat cells are plated in 96-well plates at 5×10⁵/ml per well, and blocked with 3% BSA for 1 hat room temperature. The purified Anti-CLDN18×CD3 fusion protein, the Anti-C18.2-6 and Anti-C18.2-19 VHH prepared in Embodiment 4, and the anti-CD3 VHH are diluted in gradients with 1% BSA, and then added into the pre-blocked cells respectively, and then incubated at room temperature for 1 h. The following experimental process is the same as in Embodiment 4.3. […]

A further experiment concerns the target T3, CD3 (human, UniProt P07766 23-207; P09693 23-182; P04234 22-171; P20963 22-164).
T3 construct: whole, on cells; also called CD3 positive cell Jurkat; cluster of differentiation 3
The experiment is described as follows: cell ELISA on CD3-positive Jurkat cells, anti-his tag detection. The protocol:
as §2, §4

The target in experiment [8] is T1, CLD18A2. As to the kind of experiment: cell ELISA on CLD18A2-expressing cells, anti-human IgG Fc detection. The protocol:
The Anti-C18.2-Fc fusion proteins are diluted in gradients with 1% BSA, and the HRP-Goat anti-Human IgG Fc (Novex) secondary antibody is diluted 1:20000. The cell ELISA method is the same as that described in Embodiment 3.2. The software GraphPad Prism v5.0 is used for data processing and mapping analysis. The binding curve and EC50 value of Anti-C18.2-Fc against CLD18A2 in cells are obtained to reflect the affinity of the antibody to CLD18A2.
The affinities of Anti-C18.2-hu19V1-Fc and Anti-C18.2-hu19V3-Fc are similar to that of Anti-C18.2-19-Fc, which are better than that of the positive control ch-175D10.

T2 sequence (P56856 whole entry, canonical isoform): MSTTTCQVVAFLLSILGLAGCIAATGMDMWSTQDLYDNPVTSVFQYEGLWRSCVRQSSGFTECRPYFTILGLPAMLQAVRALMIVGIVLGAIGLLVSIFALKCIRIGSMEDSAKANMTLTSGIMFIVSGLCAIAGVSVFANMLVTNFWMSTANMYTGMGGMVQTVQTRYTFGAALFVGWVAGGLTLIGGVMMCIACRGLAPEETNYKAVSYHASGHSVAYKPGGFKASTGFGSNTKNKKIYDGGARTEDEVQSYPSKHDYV
T3 sequence (P07766 23-207, chain 1 of 4): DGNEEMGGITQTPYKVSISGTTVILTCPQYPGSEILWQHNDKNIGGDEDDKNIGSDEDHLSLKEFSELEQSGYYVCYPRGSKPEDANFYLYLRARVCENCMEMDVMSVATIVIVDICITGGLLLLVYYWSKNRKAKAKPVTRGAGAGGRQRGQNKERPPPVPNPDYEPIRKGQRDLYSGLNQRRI
T3 sequence (P09693 23-182, chain 2 of 4): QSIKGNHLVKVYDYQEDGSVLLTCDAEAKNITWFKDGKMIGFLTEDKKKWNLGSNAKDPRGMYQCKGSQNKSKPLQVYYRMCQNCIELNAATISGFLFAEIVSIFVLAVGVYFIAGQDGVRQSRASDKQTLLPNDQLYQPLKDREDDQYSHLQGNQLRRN
T3 sequence (P04234 22-171, chain 3 of 4): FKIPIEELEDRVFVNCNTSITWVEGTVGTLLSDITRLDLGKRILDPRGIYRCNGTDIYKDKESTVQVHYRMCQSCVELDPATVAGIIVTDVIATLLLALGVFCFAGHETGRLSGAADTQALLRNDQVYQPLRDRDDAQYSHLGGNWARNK
T3 sequence (P20963 22-164, chain 4 of 4): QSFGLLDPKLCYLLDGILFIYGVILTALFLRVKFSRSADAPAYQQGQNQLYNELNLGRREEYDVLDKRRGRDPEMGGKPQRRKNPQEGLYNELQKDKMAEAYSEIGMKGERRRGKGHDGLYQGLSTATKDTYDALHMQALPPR

B1: Anti-C18.2-15 (VHH, not shown: small tags and cut ends)
VHH: QVQLVESGGGLVQPGGSLRLSCTASGSIFRIDGMHWYRQAPGKQRELVASITPSGITHYADSVKGRFTISRDIAKKMQYLQMNSLKPEDTAVYYCNAHLVKVGGVWSDEYWGQGTQVTVSS
notes: Treated as one molecule; also called C18-15
As for B1, the OD450 nm with CLD18A2 [1] turned out to be 0.671 OD450 nm; in the experiment with CLD18A1 [4] it was 0.189 OD450 nm; with CLD18A2 [5], 0.685 OD450 nm. The binding result with CLD18A1 [2] was “no binding (tested: 2 µg/ml)”. Moreover, in the experiment with CLD18A2 [3], the EC50 worked out at 2.89 nM.

B2: Anti-C18.2-6 (VHH, not shown: small tags and cut ends)
VHH: QLQLVESGGGLVQPGGSLRLSCAASGGIFSIGVMGWYRQAPGKQRELVATITSRGSTNYADSVKGRFTISGDNAKNTVYLQMNNLKPEDTAVYYCYADLIRPGDFYGMDYWGKGTLVTVSS
notes: Treated as one molecule; also called C18-6
As to B2, the OD450 nm amounted to 0.719 OD450 nm with CLD18A2 [1], 0.142 OD450 nm with CLD18A1 [4] and 0.623 OD450 nm with CLD18A2 [5]. For the same molecule, the binding result with CLD18A1 [2] was “no binding (tested: 2 µg/ml)”. Also, the midpoint of the response with CLD18A2 [3], the EC50, lay at 1.53 nM.

B3: Anti-CLDN18×CD3-hu6V3 (bispecific antibody)
chain: QVQLVESGGGLVQPGGSLRLSCAASGGIFSIGVMGWYRQAPGKGLELVATITSRGSTNYADSVKGRFTISRDNSKNTLYLQMNSLRAEDTAVYYCYADLIRPGDFYGMDYWGQGTLVTVSSGGGGSGGGGSGGGGSGGGGSGGGGSGGGGSGGGGSEVQLVESGGGPVQAGGSLRLSCAASGRTYRGYSMGWFRQAPGKEREFVAAIVWSGGNTYYEDSVKGRFTISRDNAKNTMYLQMTSLKPEDSATYYCAAKIRPYIFKIAGQYDYWGQGTQVTVSS
notes: Bispecific VHH; Expressed in Pichia pastoris; also called Anti-CLDN18×CD3 fusion protein
As to B3, in the experiment with CLD18A2 [6], the “EC50 of killing of NUGC-4-CLD18A2 with T cells (LDH release, E:T 10:1)” value turned out to be 0.0261 nM. The EC50 came out at 6.5 nM with CLD18A2 [7] and 9.39 nM in the experiment with CD3.

B4: Anti-CLDN18×CD3-hu19V3 (bispecific antibody)
chain: QVQLVESGGGLVQPGGSLRLSCAASGVDISSDVMAWYRQAPGKGLEFVSGLTRGGSINYADSVKGRFTISRDNSKNTLYLQMNSLRAEDTAVYYCNAEIYTGTFYPRSYWGQGTLVTVSSGGGGSGGGGSGGGGSGGGGSGGGGSGGGGSGGGGSEVQLVESGGGPVQAGGSLRLSCAASGRTYRGYSMGWFRQAPGKEREFVAAIVWSGGNTYYEDSVKGRFTISRDNAKNTMYLQMTSLKPEDSATYYCAAKIRPYIFKIAGQYDYWGQGTQVTVSS
notes: as for B3
B4: in the experiment with CLD18A2 [6], the “EC50 of killing of NUGC-4-CLD18A2 with T cells (LDH release, E:T 10:1)” value came to 0.0207 nM. The results for the EC50 with CLD18A2 [7] and with CD3 were 4.6 nM and 10.4 nM, respectively.

B5: Anti-C18.2-32 (VHH, not shown: small tags and cut ends)
VHH: QLQLVESGGGLVQPGGSLRLSCAASGEISSDAMAWYRQAPGKQRELVAGMTRGGSTNYADSVKGRFTISRDFAKNTVDLQMNSLKPEDTAVYYCNAEIYTGTFYPRSYWGQGTQVTVSS
notes: Treated as one molecule; also called C18-32
In the case of B5, the OD450 nm in the experiment with CLD18A2 [1] turned out to be 0.586 OD450 nm; with CLD18A1 [4] it was 0.107 OD450 nm; with CLD18A2 [5], 0.526 OD450 nm. Also, the binding result with CLD18A1 [2] is “no binding (tested: 2 µg/ml)”. In the experiment with CLD18A2 [3], the EC50 worked out at 2.21 nM.

B6: Anti-C18.2-20 (VHH, not shown: small tags and cut ends)
VHH: QVQLVESGGGLVQPGGSLRLSCAASGSIFSINAMGWYRQAPGKQRELVAAITFGGGSTNYADSVKGRFTISRDNAKNTVYLQMNSLKPEDTAVYYCNADLLVGGFPRRNVYWGQGTQVTVSS
notes: Treated as one molecule; also called C18-20
Consider B6, for which the results for the OD450 nm with CLD18A2 [1], with CLD18A1 [4] and with CLD18A2 [5] were 0.621 OD450 nm, 0.128 OD450 nm and 0.528 OD450 nm, respectively. In the experiment with CLD18A1 [2], the binding result is “no binding (tested: 2 µg/ml)”. The same molecule had a 50% effective concentration (EC50) with CLD18A2 [3] of 1.87 nM.

B7: Anti-C18.2-7 (VHH, not shown: small tags and cut ends)
VHH: QVQLVESGGGLVQPGGSLRLSCAASGSIFLINAMGWYRQAPGKQRELVAVITRGGSANYTDSVKGRFTISRDNAKNTVYLQMNSLKPEDTAVYYCNADLNLRSDPFKWYTFWGQGTQVTVSS
notes: Treated as one molecule; also called C18-7
For B7, the OD450 nm came to 0.658 OD450 nm with CLD18A2 [1], 0.132 OD450 nm in the experiment with CLD18A1 [4] and 0.594 OD450 nm with CLD18A2 [5]. Besides, the binding result with CLD18A1 [2] is given as “no binding (tested: 2 µg/ml)”. Besides, the EC50 with CLD18A2 [3] is 2.12 nM.

B8: Anti-C18.2-28 (VHH, not shown: small tags and cut ends)
VHH: B7 VHH with L30M, A33V, G55A, A57T, T60A, R102A, F111Y
notes: Treated as one molecule; also called C18-28
Turning to B8, the values for the OD450 nm in the experiment with CLD18A2 [1], in the experiment with CLD18A1 [4] and with CLD18A2 [5] were 0.598 OD450 nm, 0.121 OD450 nm and 0.47 OD450 nm, respectively. Besides, the binding result with CLD18A1 [2] is given as “no binding (tested: 2 µg/ml)”. In the experiment with CLD18A2 [3], this molecule gave a concentration giving a half-maximal response (EC50) of 2.54 nM.

B9: Anti-C18.2-69 (VHH, not shown: small tags and cut ends)
VHH: QVQLVESGGGLVQPGGSLRLSCAASGSIFSIPVMTWYRQALGKEREFVAGISKGGTSNYADSVKGRFTVSRDNAKNTVYLQMNSLKSEDTAVYYCNAQASSFGWMPLSDYWGQGTQVTVSS
notes: Treated as one molecule; also called C18-69
For B9, the OD450 nm with CLD18A2 [1] is 0.573 OD450 nm; with CLD18A1 [4], 0.253 OD450 nm; with CLD18A2 [5], 0.608 OD450 nm. Besides, the binding result with CLD18A1 [2] was “no binding (tested: 2 µg/ml)”. A half-maximal effect in the experiment with CLD18A2 [3] (EC50) was put at 2.23 nM.

B10: ch-175D10 (antibody, V domains shown)
VH: QVQLQQPGAELVRPGASVKLSCKASGYTFTSYWINWVKQRPGQGLEWIGNIYPSDSYTNYNQKFKDKATLTVDKSSSTAYMQLSSPTSEDSAVYYCTRSWRGNSFDYWGQGTTLTVSS
VL: DIVMTQSPSSLTVTAGEKVTMSCKSSQSLLNSGNQKNYLTWYQQKPGQPPKLLIYWASTRESGVPDRFTGSGSGTDFTLTISSVQAEDLAVYYCQNDYSYPFTFGSGTKLEIKR
B10: it took 2.59 nM to reach a half-maximal effect with CLD18A2 [8] (EC50).

B11: Anti-C18.2-19 (VHH, not shown: small tags and cut ends)
VHH: QLQLVESGGGLVQPGGSLRLSCAASGVDISSDVMAWYRQAPGKQREFVSGLTRGGSINYADSVKGRFTISRDFAKNTVDLQMNSLKPEDTAVYYCNAEIYTGTFYPRSYWGQGTQVTVSS
notes: Treated as one molecule; also called C18-19
Regarding B11, the OD450 nm worked out at 0.668 OD450 nm with CLD18A2 [1], 0.121 OD450 nm with CLD18A1 [4] and 0.565 OD450 nm with CLD18A2 [5]. For the same molecule, in the experiment with CLD18A1 [2], the binding result was “no binding (tested: 2 µg/ml)”. The same molecule had an EC50 with CLD18A2 [3] of 1.25 nM.

What is called EC50 is the concentration at which the effect is half-maximal. Read a high EC50 as lower potency in that assay.

For the origin of these results see patent US20220259303A1 (ZHEJIANG DOER BIOLOGICS, published 2022).
